Source: patent US20180142016A1

target: human ROR1 extracellular domain (ECD) protein (human) (UniProt Q01973); test: competitive phage ELISA, soluble vs coated ROR1
Sequence (Q01973 30-406 limits assumed): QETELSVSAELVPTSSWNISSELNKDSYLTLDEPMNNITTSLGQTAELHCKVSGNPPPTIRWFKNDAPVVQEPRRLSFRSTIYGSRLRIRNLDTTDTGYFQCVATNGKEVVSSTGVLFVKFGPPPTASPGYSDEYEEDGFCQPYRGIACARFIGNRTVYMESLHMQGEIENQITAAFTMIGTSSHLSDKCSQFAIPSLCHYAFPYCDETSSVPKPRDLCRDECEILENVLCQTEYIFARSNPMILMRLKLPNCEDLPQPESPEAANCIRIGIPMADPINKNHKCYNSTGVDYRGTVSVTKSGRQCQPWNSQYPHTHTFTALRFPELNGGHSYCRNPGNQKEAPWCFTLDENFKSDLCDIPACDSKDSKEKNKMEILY

Row | IC50 | Binder
1 | 2.76 nM | P601-149 (scFv, from another filing, V domains shown) VH: EAQLVESGGGLVKPGGSLRLSCAASGFTFSDYYMGWVRQAPGKGLKWLSYISDRAHTIYDTDSVKGRFTISRDDAKSSLYLRMNNLRVEDTAVYYCARAVGAGEGFDYWGQGTLVTVSS VL: DIQLTQSPSSLSASVGDRVTITCQASQDVRNYLNWYQQKPGKAPNLLIYDATNLESGVPSRFSGSGSGTDFTFTISSLQPEDFATYYCQQYDNLPLSFGGGTKVEIK
2 | 263 nM | P601-128 (scFv, from another filing, V domains shown) VH: EVQLVQSGAEVKKPGESLKISCKGSGYSFSRYWIGWVRQMPGKGLEWMGIIYPRDSDTRYSPSFQGQVTISADKSISTAYLQWSSLKASDTAMYYCATPVVTAGAFDIWGQGTMVTVSS VL: DIQMTQSPSSVSASVGDRVTITCRASQGISSWLAWYQQKPGKAPKLLIYAASSLQSGVPSRFSGSGSGTDFTLTISSLQPEDFATYYCQQANSFPLTFGGGTKVEIK
3 | 1.53 nM | P601-153 (scFv, from another filing, V domains shown) VH: QMQLVQSGAEVKKPGASVKVSCKASGYTFTSYYMHWVRQAPGQGLEWMGIINPSGGSTSYAQKFQGRVTMTRDTSTSTVYMELSSLRSEDTAVYYCARGGYTGWSPSDPWGQGTLVTVSS VL: QSALTQPASVSGSPGQSITISCTGTSSDVGGYNYVSWYQQHPGKAPKFMIYDVSKRPSGVSNRFSGSKSGNTASLTISGLQAEDEADYYCGSFTSSITYVFGTGTKVTVL
